Article PMC13462943

B1: GLP methyltransferase domain (aa 1001-1266), wild type [human] / itself (parent)
chain: DRPSPVERIVSRDIARGYERIPIPCVNAVDSEPCPSNYKYVSQNCVTSPMNIDRNITHLQYCVCIDDCSSSNCMCGQLSMRCWYDKDGRLLPEFNMAEPPLIFECNHACSCWRNCRNRVVQNGLRARLQLYRTRDMGWGVRSLQDIPPGTFVCEYVGELISDSEADVREEDSYLFDLDNKDGEVYCIDARFYGNVSRFINHHCEPNLVPVRVFMAHQDLRFPRIAFFSTRLIEAGEQLGFDYGERFWDIKGKLFSCRCGSPKCRHS

Variants of: B1
Assay: native mass spectrometry (nESI-MS)
Conditions: with itself; parent: 1; read off a plot

| ratio to parent | Variant |
| --- | --- |
| 0.34 | chain 1 C73Y |
